We go through four molecules from patent US20240132563A1 (BRIGHT PEAK THERAPEUTICS, published 2024).

Test [1] concerns the target T1, CD218a (IL-18 receptor alpha subunit), avi-tagged (UniProt Q13478 19-329, limits assumed).
T1 construct: BLI ligand printed as 'CD218a (avi)'; also called CD218a (avi); IL-18Rα
T1 sequence (looked up): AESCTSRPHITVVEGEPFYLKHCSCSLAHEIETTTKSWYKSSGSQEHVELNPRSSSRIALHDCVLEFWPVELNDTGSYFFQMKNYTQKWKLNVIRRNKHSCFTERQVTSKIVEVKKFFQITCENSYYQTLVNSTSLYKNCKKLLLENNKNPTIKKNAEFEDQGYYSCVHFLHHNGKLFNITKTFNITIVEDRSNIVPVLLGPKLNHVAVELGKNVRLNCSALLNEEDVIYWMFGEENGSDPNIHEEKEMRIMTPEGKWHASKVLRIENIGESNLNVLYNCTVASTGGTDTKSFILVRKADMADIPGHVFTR
Nature of the test: BLI; ligand CD218a (avi).

Test [2] addresses T2, IL-18R on HEK-Blue IL18R reporter cells (UniProt Q13478 19-541; O95256 20-599, limits assumed).
T2 sequence (looked up) 1: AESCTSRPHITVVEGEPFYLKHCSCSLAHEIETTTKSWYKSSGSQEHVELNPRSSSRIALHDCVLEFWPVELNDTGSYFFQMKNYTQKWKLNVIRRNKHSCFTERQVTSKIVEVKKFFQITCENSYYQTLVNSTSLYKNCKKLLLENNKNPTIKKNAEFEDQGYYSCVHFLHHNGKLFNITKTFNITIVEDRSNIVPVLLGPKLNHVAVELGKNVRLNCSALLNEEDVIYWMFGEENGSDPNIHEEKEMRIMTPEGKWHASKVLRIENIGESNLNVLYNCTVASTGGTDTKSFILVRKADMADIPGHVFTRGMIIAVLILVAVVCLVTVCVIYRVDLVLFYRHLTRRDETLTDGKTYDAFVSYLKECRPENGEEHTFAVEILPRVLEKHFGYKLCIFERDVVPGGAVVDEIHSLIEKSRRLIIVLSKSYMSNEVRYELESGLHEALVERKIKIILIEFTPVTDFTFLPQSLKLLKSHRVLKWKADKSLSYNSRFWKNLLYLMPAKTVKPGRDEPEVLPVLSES
T2 sequence (looked up) 2: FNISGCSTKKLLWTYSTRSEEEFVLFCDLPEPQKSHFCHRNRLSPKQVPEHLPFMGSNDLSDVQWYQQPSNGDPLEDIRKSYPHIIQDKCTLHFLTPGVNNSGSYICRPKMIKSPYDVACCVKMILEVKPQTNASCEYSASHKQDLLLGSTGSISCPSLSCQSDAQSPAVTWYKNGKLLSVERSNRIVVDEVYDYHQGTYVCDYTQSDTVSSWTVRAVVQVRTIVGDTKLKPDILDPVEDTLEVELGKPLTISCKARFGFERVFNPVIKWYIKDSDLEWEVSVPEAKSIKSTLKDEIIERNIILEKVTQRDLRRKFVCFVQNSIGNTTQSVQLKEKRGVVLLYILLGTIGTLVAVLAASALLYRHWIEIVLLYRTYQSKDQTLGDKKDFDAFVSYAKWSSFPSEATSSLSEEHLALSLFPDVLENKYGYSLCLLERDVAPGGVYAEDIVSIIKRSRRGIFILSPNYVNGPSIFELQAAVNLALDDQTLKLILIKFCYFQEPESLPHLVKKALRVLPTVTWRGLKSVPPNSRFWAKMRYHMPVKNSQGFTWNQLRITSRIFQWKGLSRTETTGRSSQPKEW
Briefly: cell-based or functional assay.

The target of test [3] is T3, IL-2Rβγ on HEK-Blue IL2Rβγ reporter cells (UniProt P14784 27-551; P31785 23-369).
T3 sequence (looked up) 1: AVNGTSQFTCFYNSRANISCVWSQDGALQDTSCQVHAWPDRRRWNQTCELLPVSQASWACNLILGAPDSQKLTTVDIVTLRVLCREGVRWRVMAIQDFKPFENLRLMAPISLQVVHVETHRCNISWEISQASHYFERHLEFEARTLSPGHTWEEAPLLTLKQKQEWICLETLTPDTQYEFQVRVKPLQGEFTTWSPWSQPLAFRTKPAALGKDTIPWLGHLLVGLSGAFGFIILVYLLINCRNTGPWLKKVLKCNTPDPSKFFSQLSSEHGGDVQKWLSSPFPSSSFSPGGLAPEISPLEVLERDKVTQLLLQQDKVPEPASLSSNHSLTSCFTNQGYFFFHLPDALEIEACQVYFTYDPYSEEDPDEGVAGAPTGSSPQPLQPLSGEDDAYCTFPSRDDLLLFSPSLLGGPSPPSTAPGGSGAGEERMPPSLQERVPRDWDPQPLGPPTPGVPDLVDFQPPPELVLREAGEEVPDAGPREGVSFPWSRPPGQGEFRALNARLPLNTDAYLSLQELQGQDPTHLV
T3 sequence (looked up) 2: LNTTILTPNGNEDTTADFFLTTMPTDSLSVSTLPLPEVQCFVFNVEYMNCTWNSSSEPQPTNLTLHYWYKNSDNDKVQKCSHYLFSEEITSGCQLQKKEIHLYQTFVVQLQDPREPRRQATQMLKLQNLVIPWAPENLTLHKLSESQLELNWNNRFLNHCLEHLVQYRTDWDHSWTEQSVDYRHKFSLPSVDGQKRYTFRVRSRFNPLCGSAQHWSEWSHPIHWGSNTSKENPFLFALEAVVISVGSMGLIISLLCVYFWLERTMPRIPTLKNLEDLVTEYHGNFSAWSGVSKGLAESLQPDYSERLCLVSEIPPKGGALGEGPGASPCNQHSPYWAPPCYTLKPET
Briefly: cell-based or functional assay.

Test [4] has as its target T4, IL-2Rβ (CD122), avi-tagged (UniProt P14784 27-239, limits assumed).
T4 construct: BLI ligand printed as 'CD122 (avi)'; also called IL-2 receptor beta subunit
T4 sequence (looked up): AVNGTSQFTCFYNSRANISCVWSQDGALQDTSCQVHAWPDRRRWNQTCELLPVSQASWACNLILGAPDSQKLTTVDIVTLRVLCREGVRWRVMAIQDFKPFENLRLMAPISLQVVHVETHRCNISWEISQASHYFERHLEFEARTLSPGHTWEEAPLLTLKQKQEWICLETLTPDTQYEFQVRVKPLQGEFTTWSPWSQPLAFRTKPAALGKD
Briefly: BLI; ligand CD122 (avi).

Positions of bridges follow the written chain, without caps; N, C: chain ends. Non-standard residues stand in square brackets, D forms with d. Chains are numbered I, II in the order given. Ygp = tyrosine with amino-capped PEG8; Yn3 = tyrosine with azide-capped PEG9; hSer = N[C@@H](CCO)C(=O)O; Nle = CCCC[C@H](N)C(=O)O

B1: IL-18 polypeptide of SEQ ID NO: 30 (E6K, V11I, C38A, K53A, T63A, C76A, C127A) (ligand)
chain: YFGKLKSKLSIIRNLNDQVLFIDQGNRPLFEDMTDSDARDNAPRTIFIISMYADSQPRGMAVAISVKCEKISTLSAENKIISFKEMNPPDNIKDTKSDIIFFQRSVPGHDNKMQFESSSYEGYFLAAEKERDLFKLILKKEDELGDRSIMFTVQNED
notes: also called C086
In test [1], B1 yielded a Kd of 26.1 nM, a koff of 0.0567 s⁻¹ and a kon of 2.17e+06 M⁻¹ s⁻¹. Besides, the “EC50, HEK-Blue IL18R reporter assay” value in test [2] was 0.067 pM.

B2: Bifunctional cytokine Composition 4 (IL-18 SEQ ID NO: 30, linker 004, IL-2 SEQ ID NO: 300) (other)
chain 1: YFGKLKSKLSIIRNLNDQVLFIDQGNRPLFEDMTDSDARDNAPRTIFIISMYADSQPRGMAVAISVKCEKISTLSAENKIISFKEMNPPDNIKDTKSDIIFFQRSVPGHDNKMQFESSSYEGYFLAAEKERDLFKLILKKEDELGDRSIMFTVQNED
chain 2: APTSSSTKKTQLQLEHLLLDLQ[Nle]ILNGINNYKNPKLTR[Nle]L[hSer][Yn3]KF[Ygp][Nle]PKKATELKHLQCLEEELKPLEEVL[hSer]LAQSKNFHLRPRDLISNINVIVLELKGSETTF[hSer]CEYADETATIVEFLNRWITFSQSIISTLT
modifications: linker I:68-II:42 via linker 004 (SulfoDBCO-Maleimide) (inferred); ends not checked
notes: Two cytokines joined by a chemical (non-peptide) linker
In test [1], B2 returned a Kd of 66.4 nM, a koff of 0.0708 s⁻¹ and a kon of 1.07e+06 M⁻¹ s⁻¹. The “EC50, HEK-Blue IL18R reporter assay” value in test [2] stood at 1.48 pM. For the same molecule, in test [3], the “EC50, HEK-Blue IL2Rβγ reporter assay” value was determined as 0.05 nM. Further, in test [4], the dissociation constant Kd turned out to be 148 nM, the koff came out at 0.0863 s⁻¹ and the kon was found to be 585000 M⁻¹ s⁻¹.

B3: IL-2 polypeptide of SEQ ID NO: 300 (ligand)
chain: APTSSSTKKTQLQLEHLLLDLQ[Nle]ILNGINNYKNPKLTR[Nle]L[hSer][Yn3]KF[Ygp][Nle]PKKATELKHLQCLEEELKPLEEVL[hSer]LAQSKNFHLRPRDLISNINVIVLELKGSETTF[hSer]CEYADETATIVEFLNRWITFSQSIISTLT
modifications: ends and bridges not checked
notes: Synthetic modified IL-2
As for B3, the “EC50, HEK-Blue IL2Rβγ reporter assay” value in test [3] stood at 0.004 nM. In test [4], this molecule displayed a Kd of 206 nM, a koff of 0.102 s⁻¹ and a kon of 493000 M⁻¹ s⁻¹.

B4: Bifunctional cytokine Composition 3 (IL-18 SEQ ID NO: 30, linker 006, IL-2 SEQ ID NO: 300) (other)
chain 1: YFGKLKSKLSIIRNLNDQVLFIDQGNRPLFEDMTDSDARDNAPRTIFIISMYADSQPRGMAVAISVKCEKISTLSAENKIISFKEMNPPDNIKDTKSDIIFFQRSVPGHDNKMQFESSSYEGYFLAAEKERDLFKLILKKEDELGDRSIMFTVQNED
chain 2: APTSSSTKKTQLQLEHLLLDLQ[Nle]ILNGINNYKNPKLTR[Nle]L[hSer][Yn3]KF[Ygp][Nle]PKKATELKHLQCLEEELKPLEEVL[hSer]LAQSKNFHLRPRDLISNINVIVLELKGSETTF[hSer]CEYADETATIVEFLNRWITFSQSIISTLT
modifications: linker I:68-II:42 via linker 006 (SulfoDBCO-PEG24-Maleimide) (inferred); ends not checked
notes: as for B2
In test [1], B4 gave a Kd of 25 nM, a koff of 0.0405 s⁻¹ and an association rate constant (kon) of 1.62e+06 M⁻¹ s⁻¹. Further, in test [2], the “EC50, HEK-Blue IL18R reporter assay” value was determined as 0.1 pM. The “EC50, HEK-Blue IL2Rβγ reporter assay” value in test [3] is 0.007 nM. In test [4], this molecule displayed a Kd of 151 nM, a koff of 0.0842 s⁻¹ and a kon of 559000 M⁻¹ s⁻¹.
